Measurements reported in PMC3285539 (Nature, 2012).
Each block holds one binder with its values, some of them ahead of it.

B8: Rpt3 (natural protein)
chain: MEELGIVTPVEKAVEEKPAVKSYASLLAQLNGTVNNNSALSNVNSDIYFKLKKLEKEYELLTLQEDYIKDEQRHLKRELKRAQEEVKRIQSVPLVIGQFLEPIDQNTGIVSSTTGMSYVVRILSTLDRELLKPSMSVALHRHSNALVDILPPDSDSSISVMGENEKPDVTYADVGGLDMQKQEIREAVELPLVQADLYEQIGIDPPRGVLLYGPPGTGKTMLVKAVANSTKAAFIRVNGSEFVHKYLGEGPRMVRDVFRLARENAPSIIFIDEVDSIATKRFDAQTGSDREVQRILIELLTQMDGFDQSTNVKVIMATNRADTLDPALLRPGRLDRKIEFPSLRDRRERRLIFGTIASKMSLAPEADLDSLIIRNDSLSGAVIAAIMQEAGLRAVRKNRYVILQSDLEEAYATQVKTDNTVDKFDFYK

Tests used:
[1] = target: T1, Rpn2 (S. cerevisiae, UniProt P32565 1-945); experiment: cryo-EM structure
T1 sequence: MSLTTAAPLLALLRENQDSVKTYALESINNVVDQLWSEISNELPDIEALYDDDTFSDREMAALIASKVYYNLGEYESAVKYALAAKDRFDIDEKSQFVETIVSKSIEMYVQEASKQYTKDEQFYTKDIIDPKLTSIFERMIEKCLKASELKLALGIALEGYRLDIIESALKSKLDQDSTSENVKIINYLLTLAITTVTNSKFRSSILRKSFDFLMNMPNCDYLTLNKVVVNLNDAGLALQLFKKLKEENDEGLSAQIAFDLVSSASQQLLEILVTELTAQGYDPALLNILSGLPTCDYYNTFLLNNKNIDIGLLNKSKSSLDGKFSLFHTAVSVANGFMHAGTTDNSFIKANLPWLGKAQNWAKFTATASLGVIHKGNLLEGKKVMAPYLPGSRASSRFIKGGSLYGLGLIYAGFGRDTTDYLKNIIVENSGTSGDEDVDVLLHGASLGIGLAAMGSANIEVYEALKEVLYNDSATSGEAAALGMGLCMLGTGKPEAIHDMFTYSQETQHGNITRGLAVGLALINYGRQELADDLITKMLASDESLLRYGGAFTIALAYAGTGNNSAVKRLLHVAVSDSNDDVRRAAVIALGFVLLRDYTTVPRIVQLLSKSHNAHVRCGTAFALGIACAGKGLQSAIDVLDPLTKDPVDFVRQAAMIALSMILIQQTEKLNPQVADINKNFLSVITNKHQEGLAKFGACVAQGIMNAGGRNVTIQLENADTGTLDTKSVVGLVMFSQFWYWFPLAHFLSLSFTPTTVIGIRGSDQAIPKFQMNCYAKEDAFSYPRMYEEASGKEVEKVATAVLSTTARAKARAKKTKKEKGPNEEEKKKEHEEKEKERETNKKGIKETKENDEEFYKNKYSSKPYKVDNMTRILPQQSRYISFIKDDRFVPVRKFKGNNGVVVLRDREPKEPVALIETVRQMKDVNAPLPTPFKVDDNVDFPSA

[2] = target: Rpt2 (S. cerevisiae, UniProt P40327 1-437); experiment: cryo-EM structure
[3] = target: T2, Rpn1 (S. cerevisiae, UniProt P38764 1-993); experiment: electron microscopy, variance maps
T2 sequence: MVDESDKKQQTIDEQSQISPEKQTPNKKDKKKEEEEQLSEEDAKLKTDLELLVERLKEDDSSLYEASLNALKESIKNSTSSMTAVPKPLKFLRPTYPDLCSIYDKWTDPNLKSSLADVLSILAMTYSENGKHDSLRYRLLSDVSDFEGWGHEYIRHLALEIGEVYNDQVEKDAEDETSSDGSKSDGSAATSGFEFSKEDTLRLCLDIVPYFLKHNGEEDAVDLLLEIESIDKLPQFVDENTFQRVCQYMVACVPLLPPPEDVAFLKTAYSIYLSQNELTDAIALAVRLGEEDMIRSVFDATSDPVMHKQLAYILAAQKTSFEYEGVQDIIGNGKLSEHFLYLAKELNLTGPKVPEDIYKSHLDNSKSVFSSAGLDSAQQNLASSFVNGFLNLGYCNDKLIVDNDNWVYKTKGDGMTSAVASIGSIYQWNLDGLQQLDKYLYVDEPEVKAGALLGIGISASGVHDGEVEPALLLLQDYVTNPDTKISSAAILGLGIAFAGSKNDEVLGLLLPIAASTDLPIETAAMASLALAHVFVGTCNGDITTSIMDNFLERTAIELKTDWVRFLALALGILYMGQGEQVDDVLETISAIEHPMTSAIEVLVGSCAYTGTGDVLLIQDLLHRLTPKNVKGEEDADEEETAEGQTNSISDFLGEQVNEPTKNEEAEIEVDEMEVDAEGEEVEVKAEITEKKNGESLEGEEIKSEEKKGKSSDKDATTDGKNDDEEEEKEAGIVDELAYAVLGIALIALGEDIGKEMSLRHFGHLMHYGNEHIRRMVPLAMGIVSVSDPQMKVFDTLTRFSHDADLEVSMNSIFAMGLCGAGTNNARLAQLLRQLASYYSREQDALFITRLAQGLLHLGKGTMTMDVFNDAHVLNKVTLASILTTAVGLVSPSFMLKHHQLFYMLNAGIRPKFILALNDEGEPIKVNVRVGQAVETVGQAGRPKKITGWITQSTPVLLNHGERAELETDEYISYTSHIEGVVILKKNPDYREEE

[4] = target: B8; experiment: cryo-EM structure
[5] = target: T3, Rpn6 (S. cerevisiae, UniProt Q12377 1-434); experiment: cryo-EM structure
T3 sequence: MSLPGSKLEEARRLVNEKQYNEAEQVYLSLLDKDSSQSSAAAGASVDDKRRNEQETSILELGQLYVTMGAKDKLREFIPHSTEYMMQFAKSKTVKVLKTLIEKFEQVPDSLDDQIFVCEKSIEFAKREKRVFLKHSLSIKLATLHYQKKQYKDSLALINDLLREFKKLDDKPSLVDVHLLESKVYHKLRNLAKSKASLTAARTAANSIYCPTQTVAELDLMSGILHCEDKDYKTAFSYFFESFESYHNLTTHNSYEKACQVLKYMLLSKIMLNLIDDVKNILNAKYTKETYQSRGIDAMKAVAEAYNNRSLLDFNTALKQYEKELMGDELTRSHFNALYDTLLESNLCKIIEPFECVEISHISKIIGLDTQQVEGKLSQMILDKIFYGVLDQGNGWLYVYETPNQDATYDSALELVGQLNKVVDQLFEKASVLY

[6] = target: T4, Rpn5 (S. cerevisiae, UniProt Q12250 1-445); experiment: cryo-EM structure
T4 sequence: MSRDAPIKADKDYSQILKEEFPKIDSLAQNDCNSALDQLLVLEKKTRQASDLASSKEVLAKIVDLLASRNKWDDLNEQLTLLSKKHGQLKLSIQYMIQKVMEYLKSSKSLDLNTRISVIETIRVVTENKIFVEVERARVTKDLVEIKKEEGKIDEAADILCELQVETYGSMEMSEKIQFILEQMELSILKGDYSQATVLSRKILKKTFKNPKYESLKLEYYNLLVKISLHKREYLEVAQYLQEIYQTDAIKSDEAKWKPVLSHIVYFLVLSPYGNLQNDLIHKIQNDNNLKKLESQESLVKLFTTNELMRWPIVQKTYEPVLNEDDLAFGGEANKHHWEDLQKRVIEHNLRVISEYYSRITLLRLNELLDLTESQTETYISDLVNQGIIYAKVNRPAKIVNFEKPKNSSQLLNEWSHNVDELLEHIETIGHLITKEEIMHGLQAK

Chain of Rpt2 (P40327 whole entry): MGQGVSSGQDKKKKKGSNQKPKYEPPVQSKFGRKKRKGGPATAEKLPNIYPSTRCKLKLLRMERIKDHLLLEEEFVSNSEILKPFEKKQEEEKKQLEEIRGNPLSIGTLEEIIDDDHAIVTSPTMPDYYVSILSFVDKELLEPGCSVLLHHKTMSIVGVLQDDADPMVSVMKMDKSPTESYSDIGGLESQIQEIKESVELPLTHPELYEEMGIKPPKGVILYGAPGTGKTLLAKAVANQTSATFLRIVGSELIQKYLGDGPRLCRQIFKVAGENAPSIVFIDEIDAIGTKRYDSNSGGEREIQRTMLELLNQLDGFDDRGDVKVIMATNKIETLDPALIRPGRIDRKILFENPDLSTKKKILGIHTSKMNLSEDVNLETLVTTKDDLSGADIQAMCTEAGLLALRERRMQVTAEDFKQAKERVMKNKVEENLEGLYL

B1: Rpn12 (natural protein)
chain: MPSLAELTKSLSIAFENGDYAACEKLLPPIKIELIKNNLLIPDLSIQNDIYLNDLMITKRILEVGALASIQTFNFDSFENYFNQLKPYYFSNNHKLSESDKKSKLISLYLLNLLSQNNTTKFHSELQYLDKHIKNLEDDSLLSYPIKLDRWLMEGSYQKAWDLLQSGSQNISEFDSFTDILKSAIRDEIAKNTELSYDFLPLSNIKALLFFNNEKETEKFALERNWPIVNSKVYFNNQSKEKADYEDEMMHEEDQKTNIIEKAMDYAISIENIV
binding result [1]: binds

B2: Rpn7 (natural protein)
chain: MVDVEEKSQEVEYVDPTVNRVPNYEVSEKAFLLTQSKVSIEQRKEAAEFVLAKIKEEEMAPYYKYLCEEYLVNNGQSDLEHDEKSDSLNEWIKFDQELYNELCKKNESKIKELNEKIQKLEEDDEGELEQAQAWINLGEYYAQIGDKDNAEKTLGKSLSKAISTGAKIDVMLTIARLGFFYNDQLYVKEKLEAVNSMIEKGGDWERRNRYKTYYGIHCLAVRNFKEAAKLLVDSLATFTSIELTSYESIATYASVTGLFTLERTDLKSKVIDSPELLSLISTTAALQSISSLTISLYASDYASYFPYLLETYANVLIPCKYLNRHADFFVREMRRKVYAQLLESYKTLSLKSMASAFGVSVAFLDNDLGKFIPNKQLNCVIDRVNGIVETNRPDNKNAQYHLLVKQGDGLLTKLQKYGAAVRLTGSDRV
binding result [2]: binds

B3: 20S core subunit α3 (natural protein)
chain: MGSRRYDSRTTIFSPEGRLYQVEYALESISHAGTAIGIMASDGIVLAAERKVTSTLLEQDTSTEKLYKLNDKIAVAVAGLTADAEILINTARIHAQNYLKTYNEDIPVEILVRRLSDIKQGYTQHGGLRPFGVSFIYAGYDDRYGYQLYTSNPSGNYTGWKAISVGANTSAAQTLLQMDYKDDMKVDDAIELALKTLSKTTDSSALTYDRLEFATIRKGANDGEVYQKIFKPQEIKDILVKTGITKKDEDEEADEDMK
binding result [2]: binds

B4: Ubp6 (enzyme)
chain: MSGETFEFNIRHSGKVYPITLSTDATSADLKSKAEELTQVPSARQKYMVKGGLSGEESIKIYPLIKPGSTVMLLGTPDANLISKPAKKNNFIEDLAPEQQVQQFAQLPVGFKNMGNTCYLNATLQALYRVNDLRDMILNYNPSQGVSNSGAQDEEIHKQIVIEMKRCFENLQNKSFKSVLPIVLLNTLRKCYPQFAERDSQGGFYKQQDAEELFTQLFHSMSIVFGDKFSEDFRIQFKTTIKDTANDNDITVKENESDSKLQCHISGTTNFMRNGLLEGLNEKIEKRSDLTGANSIYSVEKKISRLPKFLTVQYVRFFWKRSTNKKSKILRKVVFPFQLDVADMLTPEYAAEKVKVRDELRKVEKEKNEKEREIKRRKFDPSSSENVMTPREQYETQVALNESEKDQWLEEYKKHFPPNLEKGENPSCVYNLIGVITHQGANSESGHYQAFIRDELDENKWYKFNDDKVSVVEKEKIESLAGGGESDSALILMYKGFGL
binding result [3]: binds

Binder: B8
binding result [6]: binds | binding result [1]: binds | binding result [5]: binds

Second part, the binder after the results:

binding result [4]: binds | binding result [5]: binds
B5: 20S core subunit α2 (natural protein)
chain: MTDRYSFSLTTFSPSGKLGQIDYALTAVKQGVTSLGIKATNGVVIATEKKSSSPLAMSETLSKVSLLTPDIGAVYSGMGPDYRVLVDKSRKVAHTSYKRIYGEYPPTKLLVSEVAKIMQEATQSGGVRPFGVSLLIAGHDEFNGFSLYQVDPSGSYFPWKATAIGKGSVAAKTFLEKRWNDELELEDAIHIALLTLKESVEGEFNGDTIELAIIGDENPDLLGYTGIPTDKGPRFRKLTSQEINDRLEAL

binding result [6]: binds | binding result [4]: binds
B6: 20S core subunit α1 (natural protein)
chain: MSGAAAASAAGYDRHITIFSPEGRLYQVEYAFKATNQTNINSLAVRGKDCTVVISQKKVPDKLLDPTTVSYIFCISRTIGMVVNGPIPDARNAALRAKAEAAEFRYKYGYDMPCDVLAKRMANLSQIYTQRAYMRPLGVILTFVSVDEELGPSIYKTDPAGYYVGYKATATGPKQQEITTNLENHFKKSKIDHINEESWEKVVEFAITHMIDALGTEFSKNDLEVGVATKDKFFTLSAENIEERLVAIAEQD

binding result [1]: binds
B7: Rpn13 (natural protein)
chain: MSMSSTVIKFRAGVCEYNEDSRLCTPIPVQGEIEIKPNEEEELGFWDFEWRPTEKPVGRELDPISLILIPGETMWVPIKSSKSGRIFALVFSSNERYFFWLQEKNSGNLPLNELSAKDKEIYNKMIGVLNNSSESDEEESNDEKQKAQDVDVSMQD
